In one test the target is T1, IFN-αR2c/ECFP (human, UniProt P48551 27-515).
T1 sequence (looked up): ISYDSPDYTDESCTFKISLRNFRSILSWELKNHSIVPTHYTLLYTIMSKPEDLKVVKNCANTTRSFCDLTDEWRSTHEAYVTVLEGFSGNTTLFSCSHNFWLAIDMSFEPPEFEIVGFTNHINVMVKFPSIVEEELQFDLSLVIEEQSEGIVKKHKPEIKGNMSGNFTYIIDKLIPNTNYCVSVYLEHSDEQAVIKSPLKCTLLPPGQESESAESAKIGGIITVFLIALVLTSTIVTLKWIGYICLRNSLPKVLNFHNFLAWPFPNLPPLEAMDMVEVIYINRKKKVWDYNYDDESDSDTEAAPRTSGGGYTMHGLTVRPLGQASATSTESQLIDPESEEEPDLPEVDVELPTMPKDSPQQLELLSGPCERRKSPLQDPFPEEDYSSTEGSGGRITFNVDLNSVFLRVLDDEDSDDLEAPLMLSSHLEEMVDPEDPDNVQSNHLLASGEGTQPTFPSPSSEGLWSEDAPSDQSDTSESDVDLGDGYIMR
Briefly: FRET or BRET. In general terms: Bioluminescence resonance energy transfer reports proximity on the nanometre scale.

The next test deals with T2, IL-10R2/StFP (human, UniProt Q08334 20-325).
T2 sequence (looked up): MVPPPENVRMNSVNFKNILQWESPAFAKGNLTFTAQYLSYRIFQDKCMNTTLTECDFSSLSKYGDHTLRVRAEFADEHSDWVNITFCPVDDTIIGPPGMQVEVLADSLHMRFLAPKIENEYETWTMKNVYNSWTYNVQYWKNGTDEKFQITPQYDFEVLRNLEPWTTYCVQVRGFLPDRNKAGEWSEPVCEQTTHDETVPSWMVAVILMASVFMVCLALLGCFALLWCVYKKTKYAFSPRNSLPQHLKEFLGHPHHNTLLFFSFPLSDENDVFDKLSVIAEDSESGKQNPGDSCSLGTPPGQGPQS
Briefly: FRET or BRET.

We go through two molecules from publication PMC3770802 (Cytokine, 2013).

B1: IFN-αR1/EYFP (receptor, human, UniProt P17181 28-557, looked up)
chain: KNLKSPQKVEVDIIDDNFILRWNRSDESVGNVTFSFDYQKTGMDNWIKLSGCQNITSTKCNFSSLKLNVYEEIKLRIRAEKENTSSWYEVDSFTPFRKAQIGPPEVHLEAEDKAIVIHISPGTKDSVMWALDGLSFTYSLVIWKNSSGVEERIENIYSRHKIYKLSPETTYCLKVKAALLTSWKIGVYSPVHCIKTTVENELPPPENIEVSVQNQNYVLKWDYTYANMTFQVQWLHAFLKRNPGNHLYKWKQIPDCENVKTTQCVFPQNVFQKGIYLLRVQASDGNNTSFWSEEIKFDTEIQAFLLPPVFNIRSLSDSFHIYIGAPKQSGNTPVIQDYPLIYEIIFWENTSNAERKIIEKKTDVTVPNLKPLTVYCVKARAHTMDEKLNKSSVFSDAVCEKTKPGNTSKIWLIVGICIALFALPFVIYAAKVFLRCINYVFFPSLKPSSSIDEYFSEQPLKNLLLSTSEEQIEKCFIIENISTIATVEETNQTDEDHKKYSSQTSQDSGNYSNEDESESKTSEELQQDFV
Regarding B1, the “EC50* (relative), rarely seen” value with IFN-αR2c/ECFP came to 4 pairs/cell.

B2: IFN-λR1/CiFP (receptor, human, UniProt Q8IU57 21-520, looked up)
chain: RPRLAPPQNVTLLSQNFSVYLTWLPGLGNPQDVTYFVAYQSSPTRRRWREVEECAGTKELLCSMMCLKKQDLYNKFKGRVRTVSPSSKSPWVESEYLDYLFEVEPAPPVLVLTQTEEILSANATYQLPPCMPPLDLKYEVAFWKEGAGNKTLFPVTPHGQPVQITLQPAASEHHCLSARTIYTFSVPKYSKFSKPTCFLLEVPEANWAFLVLPSLLILLLVIAAGGVIWKTLMGNPWFQRAKMPRALDFSGHTHPVATFQPSRPESVNDLFLCPQKELTRGVRPTPRVRAPATQQTRWKKDLAEDEEEEDEEDTEDGVSFQPYIEPPSFLGQEHQAPGHSEAGGVDSGRPRAPLVPSEGSSAWDSSDRSWASTVDSSWDRAGSSGYLAEKGPGQGPGGDGHQESLPPPEFSKDSGFLEELPEDNLSSWATWGTLPPEPNLVPGGPPVSLQTLTFCWESSPEEEEEARESEIEDSDAGSWGAESTQRTEDRGRTLGHYMAR
In the case of B2, in the test with IL-10R2/StFP, the “EC50* (relative)” value worked out at 200 pairs/cell and the “EC50* (relative), rarely seen” value turned out to be 70 pairs/cell.
